Paper PMC4165446

Experiments:
Test in all cases: other fluorescence titration
[1] = target: FIH-Gln239 → Ala variant (human)
[2] = target: FIH-Gln239 → Asn variant (human)
[3] = target: FIH-Gln239 → Glu variant (human)
[4] = target: FIH-Gln239 → His variant (human)

Kd [1]: 100 µM
Kd [2]: 98 µM
Kd [3]: 75 µM
Kd [4]: 64 µM
Binder: DESGLPQLTSYDAEVNAPIQGSRNLLQGEELLRALDQVN [39-mer CTAD peptide (C-terminal activation domain of human HIF1α, HIF1α 788–826, Cys800 → Ala)]
